The experiment addresses PD-1 antigen stably expressed on the surface of BB007 cells (UniProt Q15116). Kind of experiment: flow cytometry on BB007 cells; control, printed under the column 0 nM. In general terms: Flow cytometry measures light scatter and fluorescence of single cells or particles in a stream.

This passage reports fluorescence intensity results from patent US20190040138A1.

PD-1 antigen stably expressed on the surface of BB007 cells, sequence (Q15116 25-288 limits assumed): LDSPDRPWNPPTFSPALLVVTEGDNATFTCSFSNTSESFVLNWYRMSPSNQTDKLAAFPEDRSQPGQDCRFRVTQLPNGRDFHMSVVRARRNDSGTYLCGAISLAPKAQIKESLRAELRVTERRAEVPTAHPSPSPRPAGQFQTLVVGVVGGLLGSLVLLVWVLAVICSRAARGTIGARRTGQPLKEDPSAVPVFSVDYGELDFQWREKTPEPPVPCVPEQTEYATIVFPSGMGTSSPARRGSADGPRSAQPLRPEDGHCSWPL

hIgG (antibody) returned a fluorescence intensity of 7.4.
